Assay [1] deals with AAVpo.6 capsid (porcine adeno-associated virus po.6; VP1, VP2 and VP3) (adeno-associated virus AAVpo.6 (isolated from porcine tissues)). In words: cryo-EM structure.
Assay [2] concerns the target AAVpo.1 capsid (porcine adeno-associated virus po.1; VP1, VP2 and VP3) (adeno-associated virus AAVpo.1 (isolated from porcine tissues)). Kind of assay: cryo-EM structure.

One may read the stoichiometry N as a count of units in the complex or per binding partner. “AAVpo.6 capsid (porcine adeno-associated virus po.6; VP1, VP2 and VP3) (complex)” came in with a stoichiometry N in assay [1] of 60.
Consider “AAVpo.1 capsid (porcine adeno-associated virus po.1; VP1, VP2 and VP3) (complex)”, for which the stoichiometry N in assay [2] is 60.

Values taken from article PMC12474171.
